Source: PMC8038350, “Nordihydroguaiaretic Acid as a Novel Substrate and Inhibitor of Catechol O-Methyltransferase Modulates 4-Hydroxyestradiol-Induced Cyto- and Genotoxicity in MCF-7 Cells” (Molecules, 2021)

Substrate: [H][C@@]12CCc3c(ccc(O)c3O)[C@@]1([H])CC[C@]1(C)[C@@H](O)CC[C@@]21[H]
Assay: enzyme kinetics of O-methylation by recombinant COMT, HPLC-DAD (Km)
Format: biochemical, Homo sapiens
Details: S-adenosyl-L-methionine (SAM)

B1: catechol O-methyl transferase (COMT) (Homo sapiens) (protein)
chain: MGDTKEQRILNHVLQHAEPGNAQSVLEAIDTYCEQKEWAMNVGDKKGKIVDAVIQEHQPSVLLELGAYCGYSAVRMARLLSPGARLITIEINPDCAAITQRMVDFAGVKDKVTLVVGASQDIIPQLKKKYDVDTLDMVFLDHWKDRYLPDTLLLEECGLLRKGTVLLADNVICPGAPDFLAHVRGSSCFECTHYQSFLEYREVVDGLEKAIYKGPGSEAGP
notes: recombinant human soluble COMT, hexahistidine-tagged
Mg2+
  Km: 37.9 µM
Mg2+ docking only: active site, hydrogen bonds with Glu199 and Asn170
  Vmax: 3.26 µmol/min/mg
